Test results from PMC4389572.

Target: C3G-based poly-Pro peptide ligand
Assay: other fluorescence titration; fluorescence-based titration assay as described in Camarero et al., 2001b; conditions not given here

Row | Binder | Kd
1 | SH3_(circ-wt), backbone-cyclized N-terminal SH3 domain of c-Crk (Cys-Gly + residues 134-191) (domain or fragment, backbone cyclized: cyclo-[...], peptide bond between the N-terminal Cys and the C-terminal Gly191) CGAEYVRALFDFNGNDEEDLPFKKGDILRIRDKPEEQWWNAEDSEGKRGMIPVPYVEKYG | 890 nM
2 | SH3_(circ-Δ), backbone-cyclized N-terminal SH3 domain of c-Crk lacking Ala134 and Glu135 (Cys + residues 136-191) (domain or fragment, backbone cyclized: cyclo-[...], peptide bond between the N-terminal Cys and the C-terminal Gly191) CYVRALFDFNGNDEEDLPFKKGDILRIRDKPEEQWWNAEDSEGKRGMIPVPYVEKYG | 430 nM
3 | SH3_(lin-wt), linear N-terminal SH3 domain of c-Crk (residues 134-190 with an additional Gly191) (domain or fragment) AEYVRALFDFNGNDEEDLPFKKGDILRIRDKPEEQWWNAEDSEGKRGMIPVPYVEKYG | 870 nM
4 | SH3_(circ-GΔ), backbone-cyclized N-terminal SH3 domain of c-Crk lacking Ala134 and Glu135 (Cys-Gly + residues 136-191) (domain or fragment, backbone cyclized: cyclo-[...], peptide bond between the N-terminal Cys and the C-terminal Gly191) CGYVRALFDFNGNDEEDLPFKKGDILRIRDKPEEQWWNAEDSEGKRGMIPVPYVEKYG | 470 nM
